Assay results taken from US20200109196A1 (MOGAM INSTITUTE FOR BIOMEDICAL RESEARCH, published 2020).
Positions count from the first letter of the chain named.

T1: recombinant human CEACAM1-N domain-Kappa protein (Mogam, in-house production) (human, UniProt P13688 35-142, limits assumed)
T1 construct: domain: N domain; In-house fusion; also called HCCM1-N domain-kappa; HCCM1-N-domain-kappa
T1 sequence (looked up): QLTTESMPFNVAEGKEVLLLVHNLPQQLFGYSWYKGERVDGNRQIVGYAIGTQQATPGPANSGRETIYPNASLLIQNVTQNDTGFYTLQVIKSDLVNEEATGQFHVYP

T2: recombinant human CEACAM-5/CD66e protein (R&D systems; Cat. No. 4128-CM) (human, UniProt P06731 35-685)
T2 construct: Bought protein; also called HCCM5
T2 sequence (looked up): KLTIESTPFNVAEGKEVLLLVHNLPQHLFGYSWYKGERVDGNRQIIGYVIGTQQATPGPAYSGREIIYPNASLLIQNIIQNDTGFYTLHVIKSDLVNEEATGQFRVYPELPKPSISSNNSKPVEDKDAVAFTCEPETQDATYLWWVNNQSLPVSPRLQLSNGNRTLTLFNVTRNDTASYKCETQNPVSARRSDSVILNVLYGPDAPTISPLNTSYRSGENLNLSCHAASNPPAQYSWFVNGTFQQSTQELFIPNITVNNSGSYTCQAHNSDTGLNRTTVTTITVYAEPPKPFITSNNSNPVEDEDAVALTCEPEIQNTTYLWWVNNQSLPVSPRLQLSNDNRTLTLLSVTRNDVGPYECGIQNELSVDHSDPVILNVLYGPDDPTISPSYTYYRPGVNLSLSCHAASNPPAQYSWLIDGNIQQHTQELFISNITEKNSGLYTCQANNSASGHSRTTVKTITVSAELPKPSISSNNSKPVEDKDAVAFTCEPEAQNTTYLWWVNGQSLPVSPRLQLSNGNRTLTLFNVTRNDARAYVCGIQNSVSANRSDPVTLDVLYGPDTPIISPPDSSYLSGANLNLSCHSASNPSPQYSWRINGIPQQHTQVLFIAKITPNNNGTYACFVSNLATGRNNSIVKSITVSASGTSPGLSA

T3: recombinant human CEACAM-1/CD66a protein (R&D systems; Cat. No. 2244-CM) (human, UniProt P13688 35-428)
T3 construct: Bought protein; captured on anti-His (His1K) biosensors in the Octet assay, so it carries a His tag; also called HCCM1; recombinant CEACAM-1/CD66a protein
T3 sequence (looked up): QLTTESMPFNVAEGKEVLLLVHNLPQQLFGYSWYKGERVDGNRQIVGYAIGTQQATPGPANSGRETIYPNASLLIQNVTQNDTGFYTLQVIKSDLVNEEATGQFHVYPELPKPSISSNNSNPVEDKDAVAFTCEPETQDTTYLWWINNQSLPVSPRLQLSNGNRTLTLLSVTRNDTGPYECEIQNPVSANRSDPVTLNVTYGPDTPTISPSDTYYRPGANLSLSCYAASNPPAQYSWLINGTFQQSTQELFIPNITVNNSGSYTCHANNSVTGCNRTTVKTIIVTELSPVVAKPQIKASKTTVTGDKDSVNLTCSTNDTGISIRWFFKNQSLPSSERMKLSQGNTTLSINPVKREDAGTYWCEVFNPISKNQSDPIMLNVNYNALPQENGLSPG

B1: C19 (antibody, human IgG4 S228P, lambda, V domains shown)
VH: EVQLLESGGGLVQPGGSLRLSCAASGFTFSGYAMSWVRQAPGKGLEWVSGIYHDGGSTYYADSVKGRFTISRDNSKNTLYLQMNSLRAEDTAVYYCARVTVLCTTYGCSSYDGMDVWGQGTLVTVSS
VL: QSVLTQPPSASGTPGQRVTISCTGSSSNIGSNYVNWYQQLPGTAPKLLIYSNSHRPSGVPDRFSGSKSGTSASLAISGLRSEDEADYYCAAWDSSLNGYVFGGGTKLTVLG
B2: C15 (antibody, human IgG4 S228P, lambda, V domains shown)
VH: EVQLLESGGGLVQPGGSLRLSCAASGFTFSSYSMSWVRQAPGKGLEWVSSISPNGGNKYYADSVKGRFTISRDNSKNTLYLQMNSLGAEDTAVYYCAKDPYNIYQPLFDYWGQGTLVTVSS
VL: QSVLTQPLSASGTPGQRVTISCSGSSSNIGNNYVNWYQQLPGTAPKLLIYANSNRPSGVPDRFSGSKSGTSASLAISGLRSEEEADYYCGTWDASLSAYVFGGGTKLTVLG
B3: C18 (antibody, human IgG4 S228P, lambda, V domains shown)
VH: EVQLLESGGGLVQPGGSLRLSCAASGFTFSNYDMSWVRQAPGKGLEWVSGISHSSGSKYYADSVKGRFTISRDNSKNTLYLQMNSLRAEDTAVYYCARDPLPCLIPKCSYYYAMDVWGQGTLVTVSS
VL: QSVLTQPPSAPGTPGQRVTISCSGSSSNIGSNAVTWYQQLPGTAPKLLIYADSHRPSGVPDRFSGSKSGTSASLAISGLRSEDEADYYCGSWDDSLNAYVFGGGTKLTVLG
B4: C17 (antibody, human IgG4 S228P, lambda, V domains shown)
VH: EVQLLESGGGLVQPGGSLRLSCAASGFTFSDYSMSWVRQAPGKGLEWVSVIYPDDGNTYYADSVKGRFTISRDNSKNTLYLQMNSLRAEDTAVYYCARGSIWWLSLIPSSYNAMDVWGQGTLVAVSS
VL: B2 VL with L8P, Y33A, N54H, E83D, T91A, S97N, A98G
B5: C22 (antibody, human IgG4 S228P, lambda, V domains shown)
VH: EVQLLESGGGLVQPGGSLRLSCAASGFTFSDYDMSWVRQAPGKGLEWVSMIYSGSSSKYYADSVKGRFTISRDNSKNTLYLQMNSLRAEDTAVYYCAKAPLPFYFRPKSYYYAMDVWGQGTLVTVSS
VL: B3 VL with P11S, A33N, D52N, D94S

target: T1, recombinant human CEACAM1-N …; assay: ELISA on coated antigen (0.25 µg/ml), antibody 3 µg/ml, HRP anti-human IgG Fc, OD450
Source text: (§1) All of the recombinant human CEACAM-1/CD66a protein (R&D systems; Cat No. 2244-CM, HCCM1), recombinant human CEACAM-5/CD66e protein (R&D systems; Cat. No. 4128-CM, HCCM5), recombinant human CEACAM-6/CD66c protein (R&D systems; Cat. No. 3934-CM, HCCM6), recombinant human CEACAM-3/CD66d protein (Sino Biological; Cat. No. 11933-H08H, HCCM3), human B7-H5/Gi24/VISTA protein (Sino Biological; Cat. No. 13482-H08H, HVISTA), recombinant human CEACAM-1/CD66a protein Bulk (R&D systems; Cat. No. 2244-CM, HCCM1 (bulk)), recombinant human CEACAM1-N domain-Kappa protein (Mogam, in-house production, HCCM1-N domain-kappa), and BSA protein (2.5 μg each) were dissolved in 10 ml of PBS, respectively, and dispensed into a 96-well plate at 100 μl/well, which was incubated at 4° C. overnight. Thereafter, each well was treated with 300 μl of 1% (v/v) bovine serum albumin, and incubated at 37° C. for 1 hour.
(§2) The diluted antibodies were dispensed into each well coated with each protein at 100 μl/well, and incubated at 37° C. for 1 hour. Then, each well was washed 3 times with a washing buffer prepared by diluting 10 μl of Tween 20 (Sigma-Aldrich; Cat. No. P9146) in 990 μl of PBS. Thereafter, 2 μl of HRP-conjugated human anti-IgG-Fc antibody (anti-human IgG Fc, Sigma Cat. No. A0170) was diluted in 10 ml of PBS, added to the wells at 100 μl/well, and incubated for 1 hour.
(§3) After completion of the reaction, the wells were washed three times with the washing buffer, and 100 μl of TMB solution was added to each well to induce color development. Then, 100 μl of 2 M H₂SO₄ was added to each well to stop the reaction, and the absorbance was measured at a wavelength of 450 nm.

Row | binding result | Binder
1 | binds | B1
2 | binds | B2
3 | binds | B3
4 | binds | B4
5 | binds | B5

target: T2, recombinant human CEACAM-5/CD66e …; assay: as above
Source text: as §1, §2, §3

Row | binding result | Binder
6 | binds | B1
7 | binds | B4
8 | binds | B5

target: T3, recombinant human CEACAM-1/CD66a …; assay: as above
Source text: as §1, §2, §3

Row | binding result | Binder
9 | binds | B1
10 | binds | B3
11 | binds | B5
